Laboratory results: US20230151108A1 (UCB, published 2023)

How the values were obtained:
[1] = target: T1, human CD9, full-length, expressed on cells (human, UniProt P21926 2-228); test: binding to cells expressing full-length CD9 (selection; method not described)
T1 construct: also called Tetraspanin-29
T1 sequence: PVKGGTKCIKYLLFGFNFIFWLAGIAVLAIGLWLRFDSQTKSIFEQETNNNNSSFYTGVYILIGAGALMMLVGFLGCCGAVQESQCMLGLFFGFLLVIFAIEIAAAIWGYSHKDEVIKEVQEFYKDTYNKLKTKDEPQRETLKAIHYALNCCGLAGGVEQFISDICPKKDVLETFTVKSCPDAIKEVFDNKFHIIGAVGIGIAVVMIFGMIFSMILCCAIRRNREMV

[2] = target: T2, CD137 peptide P1 (CRD1)-human Fc fusion protein (human, UniProt Q07011 25-68); test: BLI (Octet RED384), CD137 CRD peptide-Fc on AHC biosensors, Fab-Y at 10 µg/mL; CRD inferred from the peptide binding profile
T2 construct: Made in Expi293F cells and used as conditioned medium, captured on anti-hIgG Fc biosensors; not shown: human Fc tag at the C-terminus
T2 chain: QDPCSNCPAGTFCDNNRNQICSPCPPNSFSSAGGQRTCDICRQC
Description: DNA sequences coding for each peptide (as shown in Table 7) were ordered from Twist Bioscience in a mammalian expression vector with a human Fc tag at the C-terminus. Each plasmid was used to transfect Expi293F™ cells (Gibcon™) to generate the different peptide-human Fc fusion proteins. For transfections, 850 μl of Expi293F™ cells ([…]) were plated in 48-well blocks and transfected with 3 μg of DNA using the ExpiFectamine™ 293 Transfection Kit (ThermoFisher) following the manufacturer's instructions. Cells were incubated in a 37° C., 5% CO₂ environment with shaking at 225 rpm. After 6 days, cells were pelleted (1000×g, 10 min) and the conditioned medias containing each of the peptides were harvested, quantitated and diluted to 1.7 μg/mL in Expi293™ Expression Medium (ThermoFisher). The conditioned medias were used for binding assessment to our panel of antibodies using the Octet® RED384 System (FortéBio) at room temperature with anti-hIgG Fc Capture (AHC) Biosensors (FortéBio). Firstly, an array of 8 sensors was dipped in kinetics buffer (PBS, 0.1% BSA, 0.02% Tween 20) for 180 seconds to provide a baseline signal. […]

B1: anti-CD9 Fab-Y 7272 (Fab, V domains shown)
VH: QSLEESGGRLVTPGTPLTLTCTVSGFSLSSYAMGWVRQAPGKGLEWIGAIGSITATGYARWAKGRFSISKTSTTVDLKMTSPTTEDTATYFCAREIYVGSAYAFDIWGPGTLVTVSS
VL: AYDMTQTPASVEVAVGDTVTIKCQASQSISNYLAWYQQKPGQPPKLLIYLASTLASGVPSRFKGSGSGTEFTLTISDLECADAATYYCQQGYIDNVNKGFGGGTEVVVK
notes: Tested as Fab-Y: a Fab whose CH1 is joined by a peptide linker to the GCN4 peptide (clone 7P14P); also called VR7272
B1: binds [1].

B2: anti-CD137 Fab-Y 8475 (Fab, V domains shown)
VH: QSVEESGGRLVTPGTPLTLTCTVSGFSLSTYAMSWVRQAPGKGLEWIGAIWSGGTTDYTSWAKGRFTISKASTTVDLKITSPTTEDTATYFCVRMAVIFNAYTFDSWGPGTLVTVSS
VL: AYDMTQTPSSVSAAVGGTVTIKCQASQNIYSYLAWYQQKPGQRPKLLIYGASTLASGVPSRFKGSGSGTDFTLTISDLECDDAATYYCQQGHSSGNVGNNVFGGGTEVVVK
notes: Tested as Fab-Y: a Fab whose CH1 is joined by a peptide linker to the GCN4 peptide (clone 7P14P); also called VR8475
B2: binds [2].
